Reference: US10500249B2, “Compositions and methods for preventing or treating diseases, conditions, or processes characterized by aberrant fibroblast proliferation and extracellular matrix deposition” (MOERAE MATRIX, INC., priority 2014, dated 2019)

Assays:
Test in all cases: Kinase Profiling Assay
Assay type in all cases: biochemical
Conditions in all cases: 100 μM
[1] = biological target: Syk (h) (Homo sapiens, UniProt P43405)
Outline: (§1)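 Scintillation counting quantifies radiolabeled, positively charged substrate retained on a negatively charged filter after kinase reaction with labeled ATP; inhibitor peptide present.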

[2] = biological target: T1, HIPK1 (h) (Homo sapiens, UniProt Q86Z02)
T1 construct: purchased Millipore
Outline: as §1

[3] = biological target: T2, EphB4 (h) (Homo sapiens, UniProt P54760)
T2 sequence (P54760 16-987): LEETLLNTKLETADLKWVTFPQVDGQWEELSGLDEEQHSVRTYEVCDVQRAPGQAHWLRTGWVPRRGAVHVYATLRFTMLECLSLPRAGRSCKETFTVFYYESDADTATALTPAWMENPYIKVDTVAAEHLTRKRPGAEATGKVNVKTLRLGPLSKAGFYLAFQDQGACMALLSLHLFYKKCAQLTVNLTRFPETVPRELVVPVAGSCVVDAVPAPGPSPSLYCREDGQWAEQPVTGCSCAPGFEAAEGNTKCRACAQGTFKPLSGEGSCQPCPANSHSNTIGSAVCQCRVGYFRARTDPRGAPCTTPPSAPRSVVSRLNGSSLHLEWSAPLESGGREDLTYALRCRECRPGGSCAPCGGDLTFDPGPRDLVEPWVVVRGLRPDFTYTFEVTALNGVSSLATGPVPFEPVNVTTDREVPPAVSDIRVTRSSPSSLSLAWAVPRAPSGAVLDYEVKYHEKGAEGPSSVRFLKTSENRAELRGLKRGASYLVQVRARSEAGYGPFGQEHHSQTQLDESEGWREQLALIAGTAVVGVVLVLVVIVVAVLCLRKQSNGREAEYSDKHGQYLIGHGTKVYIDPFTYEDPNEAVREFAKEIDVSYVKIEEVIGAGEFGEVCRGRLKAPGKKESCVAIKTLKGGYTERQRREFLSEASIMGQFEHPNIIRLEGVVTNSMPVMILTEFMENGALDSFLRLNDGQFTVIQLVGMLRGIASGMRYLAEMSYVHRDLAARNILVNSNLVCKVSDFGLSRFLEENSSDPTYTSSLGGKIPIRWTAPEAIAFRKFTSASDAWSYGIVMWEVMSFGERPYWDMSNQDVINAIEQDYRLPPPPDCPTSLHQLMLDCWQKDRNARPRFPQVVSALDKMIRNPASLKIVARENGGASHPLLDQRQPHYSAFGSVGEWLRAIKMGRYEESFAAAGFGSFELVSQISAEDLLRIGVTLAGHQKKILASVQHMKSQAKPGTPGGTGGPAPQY
Outline: as §1

[4] = biological target: Arg (h) (Homo sapiens, UniProt P42684)
Outline: as §1

[5] = biological target: WNK2 (h) (Homo sapiens, UniProt Q9Y3S1)
Outline: as §1

[6] = biological target: EphA5 (h) (Homo sapiens, UniProt P54756)
Outline: as §1

[7] = biological target: T3, MKK6 (h) (Homo sapiens, UniProt P52564)
T3 construct: purchased Millipore
T3 sequence (P52564 1-334): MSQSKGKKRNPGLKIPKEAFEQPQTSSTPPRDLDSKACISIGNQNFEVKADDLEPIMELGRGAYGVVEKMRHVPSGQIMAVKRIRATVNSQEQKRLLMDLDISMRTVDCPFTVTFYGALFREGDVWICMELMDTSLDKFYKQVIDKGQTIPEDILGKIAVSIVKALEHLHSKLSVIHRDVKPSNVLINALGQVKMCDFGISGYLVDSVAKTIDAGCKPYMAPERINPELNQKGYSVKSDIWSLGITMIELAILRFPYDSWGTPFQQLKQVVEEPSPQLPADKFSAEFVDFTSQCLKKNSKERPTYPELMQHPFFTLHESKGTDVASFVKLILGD
Outline: as §1

[8] = biological target: RIPK2 (h) (Homo sapiens, UniProt O43353)
Outline: as §1

[9] = biological target: Fes (h) (Homo sapiens, UniProt P07332)
Outline: as §1

[10] = biological target: ROCK-I (h) (Homo sapiens, UniProt Q13464)
Outline: as §1

[11] = biological target: T4, IR (h), activated (Homo sapiens, UniProt P06213)
T4 construct: purchased Millipore
Outline: as §1

[12] = biological target: Fms (h) (Homo sapiens, UniProt P07333)
Outline: as §1

[13] = biological target: Ret (h) (Homo sapiens, UniProt P07949)
Outline: as §1

[14] = biological target: BTK (h) (Homo sapiens, UniProt Q06187)
Outline: as §1

[15] = biological target: PKCη (h) (Homo sapiens, UniProt P24723)
Outline: as §1

[16] = biological target: Met(Y1248D) (h) (Homo sapiens, UniProt P08581, Y1230D)
Outline: as §1

Chain of BTK (h) (Q06187 whole entry): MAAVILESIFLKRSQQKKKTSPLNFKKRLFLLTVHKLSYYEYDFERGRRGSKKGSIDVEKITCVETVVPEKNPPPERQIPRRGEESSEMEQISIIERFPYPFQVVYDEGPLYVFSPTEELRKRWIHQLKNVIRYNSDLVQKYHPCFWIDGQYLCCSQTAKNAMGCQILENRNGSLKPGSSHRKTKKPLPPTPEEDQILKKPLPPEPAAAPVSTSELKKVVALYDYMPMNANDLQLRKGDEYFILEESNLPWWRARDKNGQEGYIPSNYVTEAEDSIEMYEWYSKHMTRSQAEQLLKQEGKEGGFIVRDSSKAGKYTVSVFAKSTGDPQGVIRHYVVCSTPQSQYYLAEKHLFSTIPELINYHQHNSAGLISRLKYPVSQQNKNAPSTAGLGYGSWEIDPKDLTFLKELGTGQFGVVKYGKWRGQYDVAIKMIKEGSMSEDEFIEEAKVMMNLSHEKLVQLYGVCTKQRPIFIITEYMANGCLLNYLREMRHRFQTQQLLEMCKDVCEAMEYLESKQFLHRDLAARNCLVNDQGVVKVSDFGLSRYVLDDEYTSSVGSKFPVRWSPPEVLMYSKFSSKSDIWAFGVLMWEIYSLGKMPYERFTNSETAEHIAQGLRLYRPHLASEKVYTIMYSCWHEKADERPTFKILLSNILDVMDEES
Chain of EphA5 (h) (P54756 25-1037): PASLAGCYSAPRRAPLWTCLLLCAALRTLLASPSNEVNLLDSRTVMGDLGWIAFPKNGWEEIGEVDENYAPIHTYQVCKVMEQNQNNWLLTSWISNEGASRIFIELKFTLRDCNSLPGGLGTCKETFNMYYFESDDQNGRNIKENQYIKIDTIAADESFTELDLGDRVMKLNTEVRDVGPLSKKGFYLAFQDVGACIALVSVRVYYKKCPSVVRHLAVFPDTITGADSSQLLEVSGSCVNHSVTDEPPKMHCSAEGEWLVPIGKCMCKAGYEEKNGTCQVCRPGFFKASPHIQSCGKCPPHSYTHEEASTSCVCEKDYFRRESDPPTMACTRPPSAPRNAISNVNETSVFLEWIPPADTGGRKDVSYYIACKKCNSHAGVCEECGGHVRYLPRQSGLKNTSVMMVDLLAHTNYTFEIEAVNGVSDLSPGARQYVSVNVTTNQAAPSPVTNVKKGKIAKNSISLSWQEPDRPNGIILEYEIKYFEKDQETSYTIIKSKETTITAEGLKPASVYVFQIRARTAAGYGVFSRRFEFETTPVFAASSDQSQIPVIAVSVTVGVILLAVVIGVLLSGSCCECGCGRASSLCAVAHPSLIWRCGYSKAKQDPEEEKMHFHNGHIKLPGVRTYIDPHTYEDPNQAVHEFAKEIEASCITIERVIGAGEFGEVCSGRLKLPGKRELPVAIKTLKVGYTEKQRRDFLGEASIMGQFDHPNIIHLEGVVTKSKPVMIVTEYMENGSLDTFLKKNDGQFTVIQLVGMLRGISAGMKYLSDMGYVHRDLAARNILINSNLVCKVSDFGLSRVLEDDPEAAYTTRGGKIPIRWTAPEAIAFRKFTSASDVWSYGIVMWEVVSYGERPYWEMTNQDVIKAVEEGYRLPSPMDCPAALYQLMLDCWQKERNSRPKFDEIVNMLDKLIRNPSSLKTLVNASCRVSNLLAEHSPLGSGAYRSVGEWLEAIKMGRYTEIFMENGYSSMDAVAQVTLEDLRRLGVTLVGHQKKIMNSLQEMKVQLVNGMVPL
Chain of RIPK2 (h) (O43353 whole entry): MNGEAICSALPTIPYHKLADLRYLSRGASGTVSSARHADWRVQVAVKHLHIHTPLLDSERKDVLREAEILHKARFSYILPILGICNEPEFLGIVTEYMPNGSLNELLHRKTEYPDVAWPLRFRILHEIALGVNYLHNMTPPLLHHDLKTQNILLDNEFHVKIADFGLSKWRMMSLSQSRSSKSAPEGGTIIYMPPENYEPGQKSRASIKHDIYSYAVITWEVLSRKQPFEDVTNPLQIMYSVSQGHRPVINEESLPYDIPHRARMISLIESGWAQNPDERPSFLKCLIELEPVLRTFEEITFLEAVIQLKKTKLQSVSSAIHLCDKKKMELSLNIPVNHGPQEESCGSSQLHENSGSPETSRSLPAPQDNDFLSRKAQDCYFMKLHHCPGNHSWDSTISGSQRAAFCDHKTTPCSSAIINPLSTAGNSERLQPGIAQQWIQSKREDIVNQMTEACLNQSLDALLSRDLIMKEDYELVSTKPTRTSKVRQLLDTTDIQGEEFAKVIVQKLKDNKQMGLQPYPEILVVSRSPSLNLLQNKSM
Chain of ROCK-I (h) (Q13464 whole entry): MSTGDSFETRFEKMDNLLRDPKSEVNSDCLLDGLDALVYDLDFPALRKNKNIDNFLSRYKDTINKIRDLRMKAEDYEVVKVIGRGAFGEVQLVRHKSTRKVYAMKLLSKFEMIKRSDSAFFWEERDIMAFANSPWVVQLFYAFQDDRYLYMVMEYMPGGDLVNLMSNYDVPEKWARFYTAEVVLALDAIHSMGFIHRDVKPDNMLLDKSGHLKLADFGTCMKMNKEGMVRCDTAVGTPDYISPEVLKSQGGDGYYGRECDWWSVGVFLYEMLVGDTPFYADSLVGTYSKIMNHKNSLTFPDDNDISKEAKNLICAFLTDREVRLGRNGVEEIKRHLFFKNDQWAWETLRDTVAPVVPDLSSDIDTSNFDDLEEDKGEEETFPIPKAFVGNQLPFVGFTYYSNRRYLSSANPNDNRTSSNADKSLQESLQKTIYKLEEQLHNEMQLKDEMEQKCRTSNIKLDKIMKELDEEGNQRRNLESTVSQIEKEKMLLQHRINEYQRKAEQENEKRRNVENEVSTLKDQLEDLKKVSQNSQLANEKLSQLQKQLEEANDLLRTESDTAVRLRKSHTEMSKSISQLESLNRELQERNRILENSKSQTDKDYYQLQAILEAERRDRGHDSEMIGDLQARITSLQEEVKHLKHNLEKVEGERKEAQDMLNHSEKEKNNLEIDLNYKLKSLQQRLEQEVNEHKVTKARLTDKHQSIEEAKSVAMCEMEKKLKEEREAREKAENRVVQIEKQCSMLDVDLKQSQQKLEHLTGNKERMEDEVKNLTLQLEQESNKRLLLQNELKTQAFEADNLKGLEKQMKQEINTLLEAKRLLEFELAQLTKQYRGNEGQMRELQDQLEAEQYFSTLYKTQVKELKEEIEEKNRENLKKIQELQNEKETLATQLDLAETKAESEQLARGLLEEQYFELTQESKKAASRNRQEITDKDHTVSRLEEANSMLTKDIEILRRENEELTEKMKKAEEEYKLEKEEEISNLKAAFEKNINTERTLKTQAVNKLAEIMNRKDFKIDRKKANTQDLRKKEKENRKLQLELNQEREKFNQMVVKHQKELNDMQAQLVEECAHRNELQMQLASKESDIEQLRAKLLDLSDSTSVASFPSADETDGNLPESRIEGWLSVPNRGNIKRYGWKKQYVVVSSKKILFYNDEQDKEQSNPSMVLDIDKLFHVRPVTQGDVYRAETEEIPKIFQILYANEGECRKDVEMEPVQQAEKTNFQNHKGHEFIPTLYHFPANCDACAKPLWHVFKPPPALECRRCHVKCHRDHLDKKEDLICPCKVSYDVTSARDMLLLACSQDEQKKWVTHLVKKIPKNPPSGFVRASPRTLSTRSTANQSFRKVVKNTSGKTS
T1 sequence (Q86Z02 whole entry): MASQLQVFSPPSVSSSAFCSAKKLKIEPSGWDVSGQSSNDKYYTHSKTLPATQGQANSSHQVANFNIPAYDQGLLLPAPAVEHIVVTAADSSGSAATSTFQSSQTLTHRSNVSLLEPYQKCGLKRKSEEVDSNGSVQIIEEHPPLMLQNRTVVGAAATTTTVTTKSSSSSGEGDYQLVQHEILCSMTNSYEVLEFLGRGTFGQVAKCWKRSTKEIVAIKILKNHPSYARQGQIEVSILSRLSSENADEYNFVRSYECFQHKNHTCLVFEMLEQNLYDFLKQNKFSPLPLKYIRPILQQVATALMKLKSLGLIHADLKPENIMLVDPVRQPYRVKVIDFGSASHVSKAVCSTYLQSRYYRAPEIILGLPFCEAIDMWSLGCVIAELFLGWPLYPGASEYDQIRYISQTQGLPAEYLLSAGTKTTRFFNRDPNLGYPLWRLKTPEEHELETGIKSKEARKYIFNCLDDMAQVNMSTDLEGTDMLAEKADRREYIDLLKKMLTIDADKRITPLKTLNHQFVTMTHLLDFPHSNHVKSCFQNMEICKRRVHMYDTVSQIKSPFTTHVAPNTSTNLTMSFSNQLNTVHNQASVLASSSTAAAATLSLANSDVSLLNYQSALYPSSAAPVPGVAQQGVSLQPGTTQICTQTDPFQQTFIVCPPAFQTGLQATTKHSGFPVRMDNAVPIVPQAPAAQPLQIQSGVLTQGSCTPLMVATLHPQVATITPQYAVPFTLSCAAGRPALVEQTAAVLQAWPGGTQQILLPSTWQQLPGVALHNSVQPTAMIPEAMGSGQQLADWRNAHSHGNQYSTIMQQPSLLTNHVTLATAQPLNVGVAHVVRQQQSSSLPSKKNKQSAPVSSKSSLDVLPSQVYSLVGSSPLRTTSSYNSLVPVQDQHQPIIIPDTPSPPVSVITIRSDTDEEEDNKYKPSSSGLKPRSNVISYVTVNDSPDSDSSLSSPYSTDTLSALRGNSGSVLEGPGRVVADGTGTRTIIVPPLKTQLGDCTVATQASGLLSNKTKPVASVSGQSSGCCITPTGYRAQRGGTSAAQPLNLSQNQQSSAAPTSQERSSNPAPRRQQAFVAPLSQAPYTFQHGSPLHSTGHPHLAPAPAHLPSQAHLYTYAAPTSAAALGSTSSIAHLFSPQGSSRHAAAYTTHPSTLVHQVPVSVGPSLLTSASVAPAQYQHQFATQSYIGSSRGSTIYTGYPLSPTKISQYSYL
T4 sequence (P06213 1005-1310 limits assumed): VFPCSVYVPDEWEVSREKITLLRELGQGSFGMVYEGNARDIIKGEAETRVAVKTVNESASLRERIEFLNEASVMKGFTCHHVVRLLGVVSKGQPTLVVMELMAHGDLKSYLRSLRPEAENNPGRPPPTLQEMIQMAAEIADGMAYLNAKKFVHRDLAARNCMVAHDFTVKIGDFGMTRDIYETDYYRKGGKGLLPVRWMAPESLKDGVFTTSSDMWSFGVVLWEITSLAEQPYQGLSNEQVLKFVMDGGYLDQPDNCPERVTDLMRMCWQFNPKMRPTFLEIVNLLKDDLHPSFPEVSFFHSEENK

Sequence | % activity [1] | % activity [2] | % activity [3] | % activity [4] | % activity [5] | % activity [6] | % activity [7] | % activity [8] | % activity [9] | % activity [10] | % activity [11] | % activity [12] | % activity [13] | % activity [14] | % activity [15] | % activity [16]
FAKLAARLYRKALARQLGVAA [MMI-0300] | 24% | 74% | 44% | 72% | 64% | 18% | 48% | 97% | 20% | 79% | 79% | 45% | 140% | – | – | –
HRRIKAWLKKIKALARQLGVAA (Mammalian) [MMI-0500] | 5% | 47% | 38% | 22% | 8% | 42% | 18% | 30% | 23% | 17% | 90% | 14% | 174% | 18% | 45% | 218%
KAFAKLAARLYRKALARQLGVAA [MMI-0400] | 9% | 91% | 28% | 84% | 54% | 24% | 44% | 98% | 16% | 73% | 59% | 37% | 145% | 94% | 98% | 31%
YARAAARQARAKALNRQLGVA (Mammalian) [MMI-0200] | 36% | – | 131% | 82% | 94% | 123% | 98% | 98% | 74% | – | – | 92% | 96% | 100% | 101% | 118%
